# Assay results: PMC10328973 (Nature Communications, 2023)
# T1: AMS2b E2E1-I53-50A trimer (Hepatitis C virus genotype 2b, strain …, stabilised)
# T1 construct: also called AMS2b E2E1 trimer; source: HEK293F, co-transfected with furin, purified (Strep-TactinXT, SEC); copies: 3 + 3
# T1 chain 1: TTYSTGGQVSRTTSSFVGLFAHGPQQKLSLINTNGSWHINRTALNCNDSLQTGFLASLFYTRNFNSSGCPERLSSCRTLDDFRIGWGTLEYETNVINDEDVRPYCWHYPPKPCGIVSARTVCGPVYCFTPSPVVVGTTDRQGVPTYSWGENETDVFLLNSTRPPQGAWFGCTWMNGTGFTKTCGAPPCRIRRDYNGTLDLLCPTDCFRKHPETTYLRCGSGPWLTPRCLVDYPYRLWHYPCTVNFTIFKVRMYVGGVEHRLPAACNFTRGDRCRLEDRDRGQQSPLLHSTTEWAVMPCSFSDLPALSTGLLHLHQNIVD
# T1 chain 2: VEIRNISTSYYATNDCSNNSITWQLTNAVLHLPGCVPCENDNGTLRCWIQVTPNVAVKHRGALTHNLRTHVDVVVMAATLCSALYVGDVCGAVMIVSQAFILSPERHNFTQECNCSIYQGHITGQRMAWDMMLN
# T2: AMS3a E2E1-I53-50A trimer (Hepatitis C virus genotype 3a, strain …, stabilised)
# T2 construct: also called AMS3a E2E1 trimer; source: HEK293F, co-transfected with furin, purified (Strep-TactinXT, SEC); copies: 3 + 3
# T2 chain 1: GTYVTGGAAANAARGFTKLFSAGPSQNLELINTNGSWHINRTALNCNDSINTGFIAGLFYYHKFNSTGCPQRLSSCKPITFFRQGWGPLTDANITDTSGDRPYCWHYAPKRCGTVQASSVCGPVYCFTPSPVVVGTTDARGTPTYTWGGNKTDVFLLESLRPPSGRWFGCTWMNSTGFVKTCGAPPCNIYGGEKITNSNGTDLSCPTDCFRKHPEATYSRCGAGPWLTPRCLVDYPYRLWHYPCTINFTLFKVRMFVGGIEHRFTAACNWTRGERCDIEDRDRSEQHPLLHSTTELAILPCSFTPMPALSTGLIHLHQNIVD
# T2 chain 2: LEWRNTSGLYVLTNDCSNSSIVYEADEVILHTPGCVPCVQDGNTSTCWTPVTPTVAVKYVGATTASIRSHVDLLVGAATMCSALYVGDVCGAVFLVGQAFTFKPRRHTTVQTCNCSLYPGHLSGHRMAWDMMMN
# Legend:
# H77 E2E1-I53-50A trimer = biological target: T3, H77 E2E1-I53-50A trimer (Hepatitis C virus genotype 1a, strain …, UniProt P27958, stabilised); experiment: ELISA; conditions: both partners purified
# T3 construct: source: HEK293F, co-transfected with furin, purified (Strep-TactinXT, SEC); copies: 3 + 3
# [1] = biological target: T4, AMS2b E2E1-I53-50A trimer (Hepatitis C virus genotype 2b, strain …, stabilised); experiment: ELISA; conditions: both partners purified
# T4 construct: also called AMS2b E2E1 trimer; source: HEK293F, co-transfected with furin, purified (Strep-TactinXT, SEC); copies: 3 + 3
# [2] = biological target: T5, AMS3a E2E1-I53-50A trimer (Hepatitis C virus genotype 3a, strain …, stabilised); experiment: ELISA; conditions: both partners purified
# T5 construct: also called AMS3a E2E1 trimer; source: HEK293F, co-transfected with furin, purified (Strep-TactinXT, SEC); copies: 3 + 3
# [3] = biological target: T6, UKNP5.2.1 E2E1-I53-50A trimer (Hepatitis C virus genotype 5, strain …, UniProt A0A0U3TV66, stabilised); experiment: cell-based or functional assay
# [4] = biological target: T7, UKNP4.1.1 E2E1-I53-50A trimer (Hepatitis C virus genotype 4a, strain …, UniProt A0A0U3JDN1, stabilised); experiment: ELISA; conditions: both partners purified
# T7 construct: also called UKNP4.1.1 E2E1 trimer; source: HEK293F, co-transfected with furin, purified (Strep-TactinXT, SEC); copies: 3 + 3
# [5] = biological target: T6, UKNP5.2.1 E2E1-I53-50A trimer; experiment: ELISA; conditions: both partners purified
# [6] = biological target: T8, UKNP6.1.2 E2E1-I53-50A trimer (Hepatitis C virus genotype 6, strain …, UniProt A0A0U3SJ35, stabilised); experiment: ELISA; conditions: both partners purified
# T8 construct: also called UKNP6.1.2 E2E1 trimer; source: HEK293F, co-transfected with furin, purified (Strep-TactinXT, SEC); copies: 3 + 3
# [7] = biological target: T1, AMS2b E2E1-I53-50A trimer; experiment: ELISA; conditions: both partners purified
# [8] = biological target: T2, AMS3a E2E1-I53-50A trimer; experiment: ELISA; conditions: both partners purified
# [9] = biological target: T9, UKNP4.1.1 E2E1-I53-50A trimer (Hepatitis C virus genotype 4a, strain …, UniProt A0A0U3JDN1, stabilised); experiment: ELISA; conditions: both partners purified; remark: listed apart in the source
# T9 construct: also called UKNP4.1.1 E2E1 trimer; source: HEK293F, co-transfected with furin, purified (Strep-TactinXT, SEC); copies: 3 + 3
# [10] = biological target: T10, UKNP5.2.1 E2E1-I53-50A trimer (Hepatitis C virus genotype 5, strain …, UniProt A0A0U3TV66, stabilised); experiment: ELISA; conditions: both partners purified; remark: listed apart in the source
# T10 construct: also called UKNP5.2.1 E2E1 trimer; source: HEK293F, co-transfected with furin, purified (Strep-TactinXT, SEC); copies: 3 + 3
# [11] = biological target: T11, UKNP6.1.2 E2E1-I53-50A trimer (Hepatitis C virus genotype 6, strain …, UniProt A0A0U3SJ35, stabilised); experiment: ELISA; conditions: both partners purified; remark: listed apart in the source
# T11 construct: also called UKNP6.1.2 E2E1 trimer; source: HEK293F, co-transfected with furin, purified (Strep-TactinXT, SEC); copies: 3 + 3
Binder,binding result (H77 E2E1-I53-50A trimer),binding result [1],binding result [2],"neutralisation of UKNP5.2.1 HCVpp, IC50 [3]",binding result [4],binding result [5],binding result [6],binding result [7],binding result [8],binding result [9],binding result [10],binding result [11]
"HEPC74 (antibody, V domains shown, also called mature HEPC74; conventional HEPC74; source: HEK293F, transfected, purified (protein A/G)) VH: QVQLVQSGAEVKKPGSSVKVSCTTSGGTYINYAISWVRQAPGQGLEWVGGMSPISNTPKYAQKFQGRVTITADESTSTTYMELSSLRPEDTAVYYCARDLLKYCGGGNCHSLLVDPWGQGTLVTVSS VL: DIVMTQSPSTLSASVGDRVTISCRASQSISSWLAWYQQKPGRAPKLLIYKASSLETGVPSRFSGSGSGTEFTLTISSLQPDDFATYYCQHYNTYLFTFGPGTKVDLK",binds,binds,binds,0.03 µg/mL,–,–,–,–,–,–,–,–
"HEPC74 S54L (antibody, V domains shown, human IgG1; source: HEK293F, transfected, purified (protein A/G)) VH: QVQLVQSGAEVKKPGSSVKVSCTTSGGTYINYAISWVRQAPGQGLEWVGGMSPILNTPKYAQKFQGRVTITADESTSTTYMELSSLRPEDTAVYYCARDLLKYCGGGNCHSLLVDPWGQGTLVTVSS VL: DIVMTQSPSTLSASVGDRVTISCRASQSISSWLAWYQQKPGRAPKLLIYKASSLETGVPSRFSGSGSGTEFTLTISSLQPDDFATYYCQHYNTYLFTFGPGTKVDLK",binds,binds,binds,–,binds,binds,binds,–,–,–,–,–
"AR3D (antibody, V domains shown, also called mature AR3D; source: HEK293F, transfected, purified (protein A/G)) VH: LLEQSGAEVKKPGSSVKVSCKASGDTFRSYVITWARQAPGQGLEWMGAIIPFFGTTNLAQKFQGRVTITADESTKTVYMDLSSLRSDDTAVYYCAKAGDLSVGGVLAGGVPHLRHFDPWGQGTLVTVSS VL: ELTQSPGTLSLSPGERATLSCRAGQTVASNSLAWYQHKPGQAPRLLIYGASIRASGIPDRFSGSGSGTDFTLTISRLEPEDFAVYYCQQYGLSSTFGQGTRLEIK",binds,–,–,–,–,–,–,binds,binds,binds,binds,binds
"HEPC3 (antibody, V domains shown, also called mature HEPC3; source: HEK293F, transfected, purified (protein A/G)) VH: QVQLVQSGAEVKKPGSSVKVSCKASGGTLNSYEITWVRQAPGQGLEWMGGITPIFETTYAQKFQGRVTITADESTSTTYMELSSLRPEDTAVYYCARDGVRYCGGGRCYNWFDPWGQGTLVTVSS VL: DIQMTQSPSSLSASVGDRVTITCRAGQNINNYLNWYQQKPGKAPKVLIYAASNLQSGVPSRFSGSGSGTDFTLTISSLQPEDFATYYCQQSHSTVRTFGQGTKVEIK",binds,binds,binds,–,binds,binds,binds,–,–,–,–,–
"AR3C (antibody, V domains shown, also called mature AR3C; conventional AR3C; source: HEK293F, transfected, purified (protein A/G)) VH: VQLLEQSGAEVKKPGSSVKVSCETSGGTFDNYALNWVRQAPGQGLEWIGGVVPLFGTTRNAQKFQGRVTISDDKSTGTGHMELRSLRSEDTAVYYCVRSVTPRYCGGGFCYGEFDYWGQGTLVTVSS VL: EIELTQSPATLSVSPGERATLSCRASQSVSSNLAWYQQKPGQAPRLLIYGASTRATGIPARFSGSGSGTEFTLTVSRLEPEDSAVYFCQQYYRSPLTFGGGTKVEIK",binds,binds,binds,–,binds,binds,binds,–,–,–,–,–
"AT1209 (antibody, V domains shown, also called mature AT1209; source: HEK293F, transfected, purified (protein A/G)) VH: QVLVQSGAEVKKPGSSVRVSCKASGDTFKTHAISWVRQAPGQGLEWVGGTVRQAPGDGLELLGGFVPILAPANDAQKFQGRVTITADGSTGPVYMDLSTLTSEDTAMYYCVTSLSEPIPRSCRGGRCYSGPFDAFGVWGQ VL: EIMLTQSPVTLSVSPGERATLSCRASQSIGTNLAWYQKPGQAPRLLIHGASTRATGVPVSFSGSGSGTEFTLTISSLQSEDFAVYYCQQYNNWPLTFGGGTKVEIK",binds,binds,binds,–,binds,binds,binds,–,–,–,–,–
